Substitutions are numbered along the chain they refer to. Names may count otherwise. Blank lines part the entries; values can stand above or below the binder they belong to.
Experiments:
[1] = target: T1, recombinant human N-terminal CCR6 Fc (human); experiment: SPR, human CCR6 N-terminal peptide Fc on the chip, FAB as analyte
T1 construct: also called human CCR6-Fc; hsCCR6-Nter-Fc

[2] = target: T2, recombinant cynomologus N-terminal CCR6 peptide Fc (cynomolgus monkey; human); experiment: SPR, cynomolgus CCR6 N-terminal Fc fusion coupled on the sensor chip, FAB as analyte
T2 construct: It differs from the human construct only in the CCR6 N-terminus; also called Cyno CCR6-Fc; cynoCCR6-Nter-Fc

[3] = target: T1, recombinant human N-terminal CCR6 Fc; experiment: SPR, human CCR6 N-terminal Fc fusion coupled on the sensor chip, FAB as analyte
[4] = target: T1, recombinant human N-terminal CCR6 Fc; experiment: SPR, FAB as analyte, fusion protein coupled onto the sensor chip
[5] = target: T2, recombinant cynomologus N-terminal CCR6 …; experiment: as above

Kd [3]: 1 nM
fold improvement in KD value compared to the parental FAB [4]: ~20 fold
Kd [2]: 2.19 nM
B3: VH5/VL1-G8-G29A FAB (Fab, V domains shown)
VH: EVQLVESGGGLVQPGGSLRLSCAASGFSFSDYYMYWVRQAPGKGLEWVSYITNGGITYYPDSVKGRFTISRDNSKNTLYLQMNSLRAEDTAVYYCTSPLRGAWFAYWGQGTLVTVSS
VL: DVVMTQSPLSLPVTLGQPASISCRSSQSIVHSNANTYLEWYQQRPGQSPRLLIYKVSNRFSGVPDRFSGSGSGTDFTLKISRVEAEDVGVYYCFQGTYLPLTFGQGTKLEIK

binding result [1]: binds
B4: VH5/VL1 L1-N28S FAB (Fab, V domains shown)
VH: B3 VH
VL: DVVMTQSPLSLPVTLGQPASISCRSSQSIVHSSGNTYLEWYQQRPGQSPRLLIYKVSNRFSGVPDRFSGSGSGTDFTLKISRVEAEDVGVYYCFQGSHVPLTFGQGTKLEIKR
notes: CDR-L1 deamidation-site variant; copies: 1 + 1

binding result [1]: binds
B5: VH5/VL1 L1-G29A FAB (Fab, V domains shown)
VH: B3 VH
VL: B3 VL with T97S, Y98H, L99V
notes: VH5/VL1 FAB fragment with G29A in CDR-L1

Kd [3]: 0.526 nM
Kd [5]: ~1 nM
fold improvement in affinity compared to the parental VH5/VL1 FAB [5]: ~30 fold
Kd [4]: ~0.5 nM
fold improvement in KD value over the first pair of FAB constructs [4]: 2 fold
fold improvement in affinity compared to the parental VH5/VL1 FAB [4]: ~40 fold
Kd [2]: 1.17 nM
B6: VH5/VL1-B3G8-G29A FAB (Fab, name in Kabat numbering, V domains shown)
VH: B3 VH with N53T, I56R
VL: B3 VL

Kd [3]: 1.28 nM
fold improvement in KD value compared to the parental FAB [4]: ~20 fold
Kd [2]: 2.79 nM
B7: VH5/VL1-C9-G29A FAB (Fab, V domains shown)
VH: B3 VH
VL: B3 VL with L99Y

Further lines, the binder ahead of its results:

B1: VH5/VL1 L1-N28T FAB (Fab, V domains shown)
VH: B3 VH
VL: B4 VL with S33T
notes: as for B4
binding result [1]: binds

B2: VH5/VL1 FAB (parental) (Fab, V domains shown)
VH: B3 VH
VL: B3 VL with A34G, T97S, Y98H, L99V
notes: Human FAB fragment; also called parental FAB; parental VH5/VL1 FAB
Kd [2]: 33.6 nM

B8: VH5/VL1-B3C9-G29A FAB (Fab, name in Kabat numbering, V domains shown)
VH: B3 VH with N53T, I56R
VL: B3 VL with L99Y
Kd [3]: 0.544 nM
Kd [5]: ~1 nM
fold improvement in affinity compared to the parental VH5/VL1 FAB [5]: ~30 fold
Kd [4]: ~0.5 nM
fold improvement in KD value over the first pair of FAB constructs [4]: 2 fold
fold improvement in affinity compared to the parental VH5/VL1 FAB [4]: ~40 fold
Kd [2]: 1.23 nM

Reference: patent US20180086836A1 (GLENMARK PHARMACEUTICALS S A, published 2018)
